Laboratory results: patent publication US20230220589A1
Blank lines part the entries; values can stand above or below the binder they belong to.

Columns and labels:
[1] = biological target: M2014-modified Y NTAA target peptides (M2014-Y-P2-peptide); test: Gini coefficient of P2 tolerance from multiplex encoding heatmap
[2] = biological target: M2014-modified Y NTAA target peptides (M2014-Y-P2-peptide); test: Gini coefficient of P1 selectivity from multiplex encoding heatmap
[3] = biological target: M90-modified F NTAA target peptide; test: affinity comparison between P1 residues (method not specified; BLI / encoding assay)
[4] = biological target: M12-modified F NTAA target peptides (M12-F-P2-peptide); test: multiplex encoding assay on 288 immobilized peptides (FIG. 9); holds for at least 14 P2 residues
[5] = biological target: M44-modified Y NTAA target peptides (M44-Y-P2-peptide); test: Gini coefficient of P2 tolerance from multiplex encoding heatmap
[6] = biological target: M44-modified Y NTAA target peptides (M44-Y-P2-peptide); test: Gini coefficient of P1 selectivity from multiplex encoding heatmap
[7] = biological target: M48-modified L NTAA target peptides (M48-L-P2-peptide); test: Gini coefficient of P2 tolerance from multiplex encoding heatmap
[8] = biological target: M48-modified L NTAA target peptides (M48-L-P2-peptide); test: Gini coefficient of P1 selectivity from multiplex encoding heatmap
[9] = biological target: M12-modified L NTAA target peptides (M12-L-P2-peptide); test: multiplex encoding assay on 288 immobilized peptides (FIG. 10); holds for at least 11 P2 residues
[10] = biological target: M90-modified L NTAA target peptide; test: affinity comparison between P1 residues (method not specified; BLI / encoding assay)

P1 score [2]: 0.238
B1: SEQ ID NO 48 (designed binder, not shown: small tags and cut ends; large carriers)
chain: QDSTQNLIPAPSLLTVPLQPDFRSDQFRGRWYVVGLAGNAVQKKTEGSFTMLSLIYELQENNSYNVTAIFVRDQDQGCRYVIDTLVPSSRAGQFTPGSMGRFPQVQSYNVQVATTDYNQFAMVFVRVTSENKQYFEITLLGRTKELSPELKERFTRFAKSLGLKDDNIIFSVPTDQCIDNSAWSHPQFEK
P2 score [1]: 0.255

fold affinity over an otherwise identical peptide with a different P1 [3]: > 2 fold
B2: SEQ ID NO 51 (designed binder, not shown: small tags and cut ends; large carriers)
chain: QIPLCANLVPVPITNATLDRITGKWFHIASAIRNEEYNKSVQRQQSTHFYITPNKTEDTIFTRVYQTRQNQCFYNSSYLNVQRENGTVSLYSGGREVVGHLLFLRDTKTLMWGTYLDDEKNWGLEFWADKPETTKEQLGEFYEALDCLRIPRSDVMYTDWKKDKCEPLEKQHEKERKQEEGES

encoding efficiency (fraction of recording tags encoded) [4]: > 0.15
B3: engineered M12-F binder (SEQ ID NO: 50) (designed binder, not shown: small tags and cut ends; large carriers)
chain: GPVPTPPDNIQVQENFNISRIYGKWYPLAMGSTSPYLKKSMDIMTPSYLVLGEGATEAEISWTETFWRKGVCEEGSGALEKTDTDGKFLYHKSKWNITEERYVVHTNYDEYAIVLVKKFSRHHGPTIEAVLMGRAPQLRETLLQDFRVVAQGVGIPEDSIFTMADRGECVPGEQ

P1 score [6]: 0.301
B4: SEQ ID NO 45 (designed binder, not shown: small tags and cut ends; large carriers)
chain: TVPDRSEIAGKWYVVALASNTEFLLREKDSLKSAMARISFLGEDELKVSYARPLPNGCLKLEATMKKTSDDGEVYLSRSAKLKVEVLDTDYKSYAVIYATPVKDGRTRHYMALYSRSPEVSPAATAIFRKLAGERNYTDEMVAMLPRQEECTVDEV
P2 score [5]: 0.426

P1 score [8]: 0.0571
B5: SEQ ID NO 27 (designed binder, not shown: small tags and cut ends; large carriers)
chain: QVSVQPNFQQDKFLGRWFIAGQASNSSWQREKCAALSRAKVVVAPATDGGLNLTMTLLRKNQCETRTTLLQPAGSLGSYSYRSPHLGSTVSWSVVETDYDQYALMYVQGSKGPGEDQRFAILWSRTQTPRAELKEKFTAFSKAQGFTEDTIVFLPQTDKCMTEQ
P2 score [7]: 0.312

encoding efficiency (fraction of recording tags encoded) [9]: > 0.15
B6: engineered M12-L binder (SEQ ID NO: 49) (designed binder, not shown: small tags and cut ends; large carriers)
chain: QVSVQPNFQQDKFLGRWFVAGIASNSSWSREKIAALSFAKGVVAPATDGGLNYTETVLRKNQCETQTVLLQPAGSLGSYSARSPHQGSTRSFSVVETDYDQYALLYAQGSKGPGEDDRVAGLWSRTQTPRAELKEKFTAFSKAQGFTEDTIVFLPQTDKCMTEQ

fold affinity over an otherwise identical peptide with a different P1 [10]: > 2 fold
B7: SEQ ID NO 53 (designed binder, not shown: small tags and cut ends; large carriers)
chain: QIPLCANLVPVPITNATLDRITGKWFLIASASRNEEYNKSVQGSQNTAFYFTPNKTEDTIFLRRYQTRQNQCFYNSSYLNVQRENGTVSSYFGGRENVIHLLFLRDTKTLMLGRYLDDEKNWGLEFYADKPETTKEQLGEFYEALDCLRIPRSDVMYTDWKKDKCEPLEKQHEKERKQEEGES
